Molecular target: the different types of antibodies (different animal originated antibodies of Example 2)
Experiment: SPR (Biacore 3000), hybrid on CM-5 chip, antibody in solution

RTYRTYRTYRTYKKKG (C-terminal NH(CH2CH2O)nCH2CH2CO-Cys-NH2 (PEG linker and cysteine amide))
SPR reaction value: < 200 RU
